T1: PUF4 RNA-binding domain (Saccharomyces cerevisiae, UniProt P25339 537-888)
T1 sequence: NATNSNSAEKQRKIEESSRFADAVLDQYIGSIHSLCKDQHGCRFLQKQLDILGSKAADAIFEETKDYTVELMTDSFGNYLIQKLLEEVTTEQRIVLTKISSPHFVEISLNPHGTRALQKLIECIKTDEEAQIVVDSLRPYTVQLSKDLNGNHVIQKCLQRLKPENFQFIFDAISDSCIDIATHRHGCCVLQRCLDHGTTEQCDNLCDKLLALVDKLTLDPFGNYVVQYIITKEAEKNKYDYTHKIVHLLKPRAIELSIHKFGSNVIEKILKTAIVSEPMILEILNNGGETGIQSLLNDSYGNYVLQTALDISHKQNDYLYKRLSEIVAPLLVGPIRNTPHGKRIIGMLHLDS


Target: T1, PUF4 RNA-binding domain
Test: Mg; RNA-MaP; 20 mM Na-HEPES pH 7.4, 30 mM KOAc, 0.75 mM MgCl2, 0.1% Tween-20, 5% glycerol, 0.1 mg/mL BSA, 2 mM DTT; 25 C; 0.0125-409.6 nM protein
Conditions: tags: N-His6-TEV cleaved; C-SNAP kept, Cy3B-labelled; label: tethered on chip by stalled RNA polymerase

Binder	Kd [nM]
UCUCUUUGUACCUCUCUCUU (ssRNA) [Ic_S1_P3E.1_K3.1_C3.1_H3.1_A3.1_[T5C]_[A6C]_F3.1_[A8C]_T3.1]	157
UCUCUUUGUACAGCUCUCUU (ssRNA) [Ic_S1_P3E.1_K3.1_C3.1_H3.1_A3.1_[T5C]_F3.1_[T7G]_[A8C]_T3.1]	76.7
UCUCUUUGUACACCUCUCUU (ssRNA) [Ic_S1_P3E.1_K3.1_C3.1_H3.1_A3.1_[T5C]_F3.1_[T7C]_[A8C]_T3.1]	41.8
UCUCUUUGUACCCAUCUCUU (ssRNA) [Ic_S1_P3E.1_K3.1_C3.1_H3.1_A3.1_[T5C]_[A6C]_F3.1_[T7C]_T3.1]	429
UCUCUUUGUACAACUCUCUU (ssRNA) [Ic_S1_P3E.1_K3.1_C3.1_H3.1_A3.1_[T5C]_F3.1_[T7A]_[A8C]_T3.1]	50.4
UCUCUUUGUACUUUUCUCUU (ssRNA) [Ic_S1_P3E.1_K3.1_C3.1_H3.1_A3.1_[T5C]_[A6T]_F3.1_[A8T]_T3.1]	19.5
UCUCUUUGUACUUGUCUCUU (ssRNA) [Ic_S1_P3E.1_K3.1_C3.1_H3.1_A3.1_[T5C]_[A6T]_F3.1_[A8G]_T3.1]	112
UCUCUUUGUAAUGGUCUCUU (ssRNA) [Ic_S1_P3E.1_K3.1_C3.1_H3.1_A3.1_[T5A]_[A6T]_F3.1_[T7G]_[A8G]_T3.1]	2030
UCUCUUUGUAACCCUCUCUU (ssRNA) [Ic_S1_P3E.1_K3.1_C3.1_H3.1_A3.1_[T5A]_[A6C]_F3.1_[T7C]_[A8C]_T3.1]	975
UCUCUUUGUACCUGUCUCUU (ssRNA) [Ic_S1_P3E.1_K3.1_C3.1_H3.1_A3.1_[T5C]_[A6C]_F3.1_[A8G]_T3.1]	115
UCUCUUUGUAAUCCUCUCUU (ssRNA) [Ic_S1_P3E.1_K3.1_C3.1_H3.1_A3.1_[T5A]_[A6T]_F3.1_[T7C]_[A8C]_T3.1]	812
UCUCUUUGUAAGCAUCUCUU (ssRNA) [Ic_S1_P3E.1_K3.1_C3.1_H3.1_A3.1_[T5A]_[A6G]_F3.1_[T7C]_T3.1]	> 2300
UCUCUUUGUACCCCUCUCUU (ssRNA) [Ic_S1_P3E.1_K3.1_C3.1_H3.1_A3.1_[T5C]_[A6C]_F3.1_[T7C]_[A8C]_T3.1]	953
UCUCUUUGUACUACUCUCUU (ssRNA) [Ic_S1_P3E.1_K3.1_C3.1_H3.1_A3.1_[T5C]_[A6T]_F3.1_[T7A]_[A8C]_T3.1]	349
UCUCUUUGUAACCUUCUCUU (ssRNA) [Ic_S1_P3E.1_K3.1_C3.1_H3.1_A3.1_[T5A]_[A6C]_F3.1_[T7C]_[A8T]_T3.1]	81
UCUCUUUGUACACGUCUCUU (ssRNA) [Ic_S1_P3E.1_K3.1_C3.1_H3.1_A3.1_[T5C]_F3.1_[T7C]_[A8G]_T3.1]	27.2
UCUCUUUGUAACACUCUCUU (ssRNA) [Ic_S1_P3E.1_K3.1_C3.1_H3.1_A3.1_[T5A]_[A6C]_F3.1_[T7A]_[A8C]_T3.1]	531
UCUCUUUGUAACGGUCUCUU (ssRNA) [Ic_S1_P3E.1_K3.1_C3.1_H3.1_A3.1_[T5A]_[A6C]_F3.1_[T7G]_[A8G]_T3.1]	> 2300
UCUCUUUGUACGUGUCUCUU (ssRNA) [Ic_S1_P3E.1_K3.1_C3.1_H3.1_A3.1_[T5C]_[A6G]_F3.1_[A8G]_T3.1]	492
UCUCUUUGUACCGCUCUCUU (ssRNA) [Ic_S1_P3E.1_K3.1_C3.1_H3.1_A3.1_[T5C]_[A6C]_F3.1_[T7G]_[A8C]_T3.1]	989
UCUCUUUGUACGUUUCUCUU (ssRNA) [Ic_S1_P3E.1_K3.1_C3.1_H3.1_A3.1_[T5C]_[A6G]_F3.1_[A8T]_T3.1]	40.7

Binder	Kd [nM]
UCUCUUUGUACAAGUCUCUU (ssRNA) [Ic_S1_P3E.1_K3.1_C3.1_H3.1_A3.1_[T5C]_F3.1_[T7A]_[A8G]_T3.1]	704
UCUCUUUGUACAAUUCUCUU (ssRNA) [Ic_S1_P3E.1_K3.1_C3.1_H3.1_A3.1_[T5C]_F3.1_[T7A]_[A8T]_T3.1]	11.1
UCUCUUUGUAACUCUCUCUU (ssRNA) [Ic_S1_P3E.1_K3.1_C3.1_H3.1_A3.1_[T5A]_[A6C]_F3.1_[A8C]_T3.1]	373
UCUCUUUGUAAUGUUCUCUU (ssRNA) [Ic_S1_P3E.1_K3.1_C3.1_H3.1_A3.1_[T5A]_[A6T]_F3.1_[T7G]_[A8T]_T3.1]	329
UCUCUUUGUACUAGUCUCUU (ssRNA) [Ic_S1_P3E.1_K3.1_C3.1_H3.1_A3.1_[T5C]_[A6T]_F3.1_[T7A]_[A8G]_T3.1]	524
UCUCUUUGUAACGCUCUCUU (ssRNA) [Ic_S1_P3E.1_K3.1_C3.1_H3.1_A3.1_[T5A]_[A6C]_F3.1_[T7G]_[A8C]_T3.1]	996
UCUCUUUGUAACAGUCUCUU (ssRNA) [Ic_S1_P3E.1_K3.1_C3.1_H3.1_A3.1_[T5A]_[A6C]_F3.1_[T7A]_[A8G]_T3.1]	491
UCUCUUUGUACUGGUCUCUU (ssRNA) [Ic_S1_P3E.1_K3.1_C3.1_H3.1_A3.1_[T5C]_[A6T]_F3.1_[T7G]_[A8G]_T3.1]	1060
UCUCUUUGUAAGCCUCUCUU (ssRNA) [Ic_S1_P3E.1_K3.1_C3.1_H3.1_A3.1_[T5A]_[A6G]_F3.1_[T7C]_[A8C]_T3.1]	1550
UCUCUUUGUACCCUUCUCUU (ssRNA) [Ic_S1_P3E.1_K3.1_C3.1_H3.1_A3.1_[T5C]_[A6C]_F3.1_[T7C]_[A8T]_T3.1]	59.5
UCUCUUUGUAAGUGUCUCUU (ssRNA) [Ic_S1_P3E.1_K3.1_C3.1_H3.1_A3.1_[T5A]_[A6G]_F3.1_[A8G]_T3.1]	1820
UCUCUUUGUACUUCUCUCUU (ssRNA) [Ic_S1_P3E.1_K3.1_C3.1_H3.1_A3.1_[T5C]_[A6T]_F3.1_[A8C]_T3.1]	190
UCUCUUUGUAAGCGUCUCUU (ssRNA) [Ic_S1_P3E.1_K3.1_C3.1_H3.1_A3.1_[T5A]_[A6G]_F3.1_[T7C]_[A8G]_T3.1]	1910
Ia_S4_P5E.1_K5.1_C5.1_H5.1_A5.1_F5.1_[T9A]_T5.1 (ssRNA) RNA: UUUGACAACUGAUCGUUCUUUCUUGUAUUAUAAUUCUUUCUCGAUCAGUUGUCUUU	2.07
Ia_S4_P5E.1_K5.1_C5.1_H5.1_A5.1_[T5C]_F5.1_T5.1 (ssRNA) RNA: UUUGACAACUGAUCGUUCUUUCUUGUACUAUUAUUCUUUCUCGAUCAGUUGUCUUU	2.21
Ia_S4_P5E.1_K5.1_C5.1_H5.1_A5.1_[T6C]_F5.1_T5.1 (ssRNA) RNA: UUUGACAACUGAUCGUUCUUUCUUGUAUCAUUAUUCUUUCUCGAUCAGUUGUCUUU	2.73
Ia_S4_P5E.1_K5.1_C5.1_H5.1_[T1A]_A5.1_F5.1_T5.1 (ssRNA) RNA: UUUGACAACUGAUCGUUCUUUCUAGUAUUAUUAUUCUUUCUCGAUCAGUUGUCUUU	> 2300
Ic_S4_P5E.1_K5.1_C5.1_H5.1_A5.1_F5.1_[A10G]_T5.1 (ssRNA) RNA: UUUGACAACUGAUCGUUCUUUCUUGUAUUAUUGUUCUUUCUCGAUCAGUUGUCUUU	11.8
Ia_S4_P5E.1_K5.1_C5.1_H5.1_[A4C]_A5.1_F5.1_T5.1 (ssRNA) RNA: UUUGACAACUGAUCGUUCUUUCUUGUCUUAUUAUUCUUUCUCGAUCAGUUGUCUUU	13.1
UCUCUUUGUAAUCGUCUCUU (ssRNA) [Ic_S1_P3E.1_K3.1_C3.1_H3.1_A3.1_[T5A]_[A6T]_F3.1_[T7C]_[A8G]_T3.1]	867
UCUCUUUGUACUCUUCUCUU (ssRNA) [Ic_S1_P3E.1_K3.1_C3.1_H3.1_A3.1_[T5C]_[A6T]_F3.1_[T7C]_[A8T]_T3.1]	44.3

Binder	Kd [nM]
UCUCUUUGUACUCCUCUCUU (ssRNA) [Ic_S1_P3E.1_K3.1_C3.1_H3.1_A3.1_[T5C]_[A6T]_F3.1_[T7C]_[A8C]_T3.1]	384
UCUCUUUGUACUGCUCUCUU (ssRNA) [Ic_S1_P3E.1_K3.1_C3.1_H3.1_A3.1_[T5C]_[A6T]_F3.1_[T7G]_[A8C]_T3.1]	842
UCUCUUUGUACACUUCUCUU (ssRNA) [Ic_S1_P3E.1_K3.1_C3.1_H3.1_A3.1_[T5C]_F3.1_[T7C]_[A8T]_T3.1]	9.72
UCUCUUUGUAAGCUUCUCUU (ssRNA) [Ic_S1_P3E.1_K3.1_C3.1_H3.1_A3.1_[T5A]_[A6G]_F3.1_[T7C]_[A8T]_T3.1]	653
UCUCUUUGUACCAUUCUCUU (ssRNA) [Ic_S1_P3E.1_K3.1_C3.1_H3.1_A3.1_[T5C]_[A6C]_F3.1_[T7A]_[A8T]_T3.1]	8.04
UCUCUUUGUACGAAUCUCUU (ssRNA) [Ic_S1_P3E.1_K3.1_C3.1_H3.1_A3.1_[T5C]_[A6G]_F3.1_[T7A]_T3.1]	891
UCUCUUUGUACUAAUCUCUU (ssRNA) [Ic_S1_P3E.1_K3.1_C3.1_H3.1_A3.1_[T5C]_[A6T]_F3.1_[T7A]_T3.1]	77.4
UCUCUUUGUACAUAUCUCUU (ssRNA) [Ic_S1_P3E.1_K3.1_C3.1_H3.1_A3.1_[T5C]_F3.1_T3.1]	5.88
UCUCUUUGUACUCAUCUCUU (ssRNA) [Ic_S1_P3E.1_K3.1_C3.1_H3.1_A3.1_[T5C]_[A6T]_F3.1_[T7C]_T3.1]	445
UCUCUUUGUACCGUUCUCUU (ssRNA) [Ic_S1_P3E.1_K3.1_C3.1_H3.1_A3.1_[T5C]_[A6C]_F3.1_[T7G]_[A8T]_T3.1]	391
UCUCUUUGUACCUUUCUCUU (ssRNA) [Ic_S1_P3E.1_K3.1_C3.1_H3.1_A3.1_[T5C]_[A6C]_F3.1_[A8T]_T3.1]	34
UCUCUUUGUAACUGUCUCUU (ssRNA) [Ic_S1_P3E.1_K3.1_C3.1_H3.1_A3.1_[T5A]_[A6C]_F3.1_[A8G]_T3.1]	389
UCUCUUUGUACCACUCUCUU (ssRNA) [Ic_S1_P3E.1_K3.1_C3.1_H3.1_A3.1_[T5C]_[A6C]_F3.1_[T7A]_[A8C]_T3.1]	192
UCUCUUUGUAACAUUCUCUU (ssRNA) [Ic_S1_P3E.1_K3.1_C3.1_H3.1_A3.1_[T5A]_[A6C]_F3.1_[T7A]_[A8T]_T3.1]	15
UCUCUUUGUACGAUUCUCUU (ssRNA) [Ic_S1_P3E.1_K3.1_C3.1_H3.1_A3.1_[T5C]_[A6G]_F3.1_[T7A]_[A8T]_T3.1]	29.9
UCUCUUUGUAAGUUUCUCUU (ssRNA) [Ic_S1_P3E.1_K3.1_C3.1_H3.1_A3.1_[T5A]_[A6G]_F3.1_[A8T]_T3.1]	709
UCUCUUUGUAACCAUCUCUU (ssRNA) [Ic_S1_P3E.1_K3.1_C3.1_H3.1_A3.1_[T5A]_[A6C]_F3.1_[T7C]_T3.1]	959
UCUCUUUGUAACUUUCUCUU (ssRNA) [Ic_S1_P3E.1_K3.1_C3.1_H3.1_A3.1_[T5A]_[A6C]_F3.1_[A8T]_T3.1]	57.1
UCUCUUUGUACUAUUCUCUU (ssRNA) [Ic_S1_P3E.1_K3.1_C3.1_H3.1_A3.1_[T5C]_[A6T]_F3.1_[T7A]_[A8T]_T3.1]	9.51
UCUCUUUGUAACAAUCUCUU (ssRNA) [Ic_S1_P3E.1_K3.1_C3.1_H3.1_A3.1_[T5A]_[A6C]_F3.1_[T7A]_T3.1]	99.3
UCUCUUUGUAACGUUCUCUU (ssRNA) [Ic_S1_P3E.1_K3.1_C3.1_H3.1_A3.1_[T5A]_[A6C]_F3.1_[T7G]_[A8T]_T3.1]	534

— publication PMC9352680, “A comprehensive thermodynamic model for RNA binding by the Saccharomyces cerevisiae Pumilio protein PUF4”
